Reference: US5603943A, “Nasally administrable compositions” (Dott Research Laboratory, priority 1994, dated 1997)
Several values for one entry are separate records, joined by “and”; a condition that tells them apart may be missing. Equal values may be shown once. Ends that are not written are not given here.

How the values were obtained:
[1] = relative, among calcitonins; cited from earlier work
[2] = test system: blood sugar; assay: Average fall of the blood sugar after nasal or subcutaneous insulin (Test Example 1); type: in vivo, male New Zealand rabbits
Protocol: A nasally administrable composition in powdery form was prepared by formulating insulin as a physiologically active peptide at the rate of 2.4 mg/rabbit (5 insulin unit (IU)/rabbit) with hydroxyapatite as a carrier having a mean particle size ranging from 40 to 45 μm.
The resulting composition was nasally administered once to six male New Zealand rabbits.
The average fall of the blood sugar was measured and represented in percentage (%) at 0, 15, 30, 60, 120 and 180 minutes after administration.
For comparison, 2 (IU)/rabbit of insulin was administered subcutaneously to six male New Zealand rabbits and the average fall of the blood sugar was measured and represented in percentage (%) at 0, 60, 120, 240 and 360 minutes after administration.

[3] = Nasal absorption, clinical effect and irritation (general statement); type: in vivo; details: powder in specific carrier, nasal route
[4] = Somatropin blood concentration, nasal powder with hydroxyapatite or calcium carbonate (Test Example 10); type: in vivo, healthy male adults (human); details: for Concentration of somatropin in the blood: nasal 6.825 somatropin unit/25 mg
Protocol: The blood (2.5 ml) was collected from each of the tested adults prior to administration and then at 5, 10, 15, 20, 30, 45, 60, 90, 120 and 150 minutes after administration.

[5] = Somatropin blood concentration, nasal powder with calcium lactate or calcium carbonate (Test Example 11); type: in vivo, healthy male adults (human)
Protocol: The blood (2.5 ml) was collected from each of the tested adults prior to administration and then at 5, 10, 15, 20, 30, 45, 60, 90, 120, 150 and 180 minutes after administration.

Substance: eel calcitonin: naturally occurring calcitonin extracted from the origin and commercially available (CSNLSTCVLGKLSQELHKLQTYPRTDVGAGTP; ends and bridges not checked; cysteine pairing not given here; UniProt P01262 1-32, looked up)
- stability [1]: higher in stability than human calcitonin

Substance: human calcitonin: naturally occurring calcitonin extracted from the origin and commercially available
- stability [1]: higher than salmon calcitonin

Substance: insulin: peptide hormone formulated with hydroxyapatite for nasal administration; also given subcutaneously as comparison
- Blood sugar, percent of initial value ([2]; S.C. comparison, 2 IU/rabbit, 0 min): 100%
- Blood sugar, percent of initial value ([2]; S.C. comparison, 2 IU/rabbit, 60 min): 57%
- Blood sugar, percent of initial value ([2]; S.C. comparison, 2 IU/rabbit, 120 min): 56%
- Blood sugar, percent of initial value ([2]; S.C. comparison, 2 IU/rabbit, 240 min): 84%
- Blood sugar, percent of initial value ([2]; S.C. comparison, 2 IU/rabbit, 360 min): 94%
- absorption through nasal route ([2]; hydroxyapatite, rabbits): high extent of absorption
- Blood sugar, percent of initial value ([2]; nasal, 5 IU/rabbit, hydroxyapatite, 0 min): 100%
- Blood sugar, percent of initial value ([2]; nasal, 5 IU/rabbit, hydroxyapatite, 15 min): 105%
- Blood sugar, percent of initial value ([2]; nasal, 5 IU/rabbit, hydroxyapatite, 30 min): 66%
- Blood sugar, percent of initial value ([2]; nasal, 5 IU/rabbit, hydroxyapatite, 60 min): 67%
- Blood sugar, percent of initial value ([2]; nasal, 5 IU/rabbit, hydroxyapatite, 120 min): 84%
- Blood sugar, percent of initial value ([2]; nasal, 5 IU/rabbit, hydroxyapatite, 180 min): 96%
- absorption into the body [3]: well absorbed into the body
- clinical effects [3]: high clinical effects

Substance: somatropin: somatropin (growth hormone; recombinant type--NOVO), 150 mg per composition (1,000 mg) with carrier
- Concentration of somatropin in the blood ([4]; 0 min (predose), calcium carbonate, individual cases No. 27-28 in order): 0.28 ng/mL and 0.24 ng/mL
- Concentration of somatropin in the blood ([4]; 0 min (predose), hydroxyapatite, individual cases No. 25-26 in order): 0.49 ng/mL and 0.76 ng/mL
- Concentration of somatropin in the blood ([4]; 5 min, calcium carbonate, individual cases No. 27-28 in order): 0.96 ng/mL and 0.55 ng/mL
- Concentration of somatropin in the blood ([4]; 5 min, hydroxyapatite, individual cases No. 25-26 in order): 2.44 ng/mL and 3.18 ng/mL
- Concentration of somatropin in the blood ([4]; 10 min, calcium carbonate, individual cases No. 27-28 in order): 2.55 ng/mL and 1.08 ng/mL
- Concentration of somatropin in the blood ([4]; 10 min, hydroxyapatite, individual cases No. 25-26 in order): 3.59 ng/mL and 2.27 ng/mL
- Concentration of somatropin in the blood ([4]; 15 min, calcium carbonate, individual cases No. 27-28 in order): 2.84 ng/mL and 1.41 ng/mL
- Concentration of somatropin in the blood ([4]; 15 min, hydroxyapatite, individual cases No. 25-26 in order): 4.66 ng/mL and 2.00 ng/mL
- Concentration of somatropin in the blood ([4]; 20 min, calcium carbonate, individual cases No. 27-28 in order): 3.02 ng/mL and 1.78 ng/mL
- Concentration of somatropin in the blood ([4]; 20 min, hydroxyapatite, individual cases No. 25-26 in order): 6.25 ng/mL and 1.86 ng/mL
- Concentration of somatropin in the blood ([4]; 30 min, calcium carbonate, individual cases No. 27-28 in order): 4.11 ng/mL and 1.91 ng/mL
- Concentration of somatropin in the blood ([4]; 30 min, hydroxyapatite, individual cases No. 25-26 in order): 5.21 ng/mL and 1.67 ng/mL
- Concentration of somatropin in the blood ([4]; 45 min, calcium carbonate, individual cases No. 27-28 in order): 8.93 ng/mL and 1.99 ng/mL
- Concentration of somatropin in the blood ([4]; 45 min, hydroxyapatite, individual cases No. 25-26 in order): 4.16 ng/mL and 1.80 ng/mL
- Concentration of somatropin in the blood ([4]; 60 min, calcium carbonate, individual cases No. 27-28 in order): 13.10 ng/mL and 2.11 ng/mL
- Concentration of somatropin in the blood ([4]; 60 min, hydroxyapatite, individual cases No. 25-26 in order): 2.93 ng/mL and 1.61 ng/mL
- Concentration of somatropin in the blood ([4]; 90 min, calcium carbonate, individual cases No. 27-28 in order): 14.60 ng/mL and 1.27 ng/mL
- Concentration of somatropin in the blood ([4]; 90 min, hydroxyapatite, individual cases No. 25-26 in order): 1.45 ng/mL and 1.41 ng/mL
- Concentration of somatropin in the blood ([4]; 120 min, calcium carbonate, individual cases No. 27-28 in order): 5.65 ng/mL and 0.92 ng/mL
- Concentration of somatropin in the blood ([4]; 120 min, hydroxyapatite, individual cases No. 25-26 in order): 0.76 ng/mL and 1.16 ng/mL
- Concentration of somatropin in the blood ([4]; 150 min, calcium carbonate, individual cases No. 27-28 in order): 2.97 ng/mL and 0.80 ng/mL
- Concentration of somatropin in the blood ([4]; 150 min, hydroxyapatite, individual cases No. 25-26 in order): 0.91 ng/mL
- absorption through nasal route ([4]; hydroxyapatite and calcium carbonate): high extent of absorption
- Concentration of somatropin in the blood ([5]; 0 min (predose), nasal 6.825 somatropin unit/25 mg, calcium carbonate, individual cases No. 31-32 in order): 0.15 ng/mL and 0.69 ng/mL
- Concentration of somatropin in the blood ([5]; 0 min (predose), nasal 6,825 (so in the source) somatropin unit/25 mg, calcium lactate, individual cases No. 29-30 in order): 1.15 ng/mL and 0.16 ng/mL
- Concentration of somatropin in the blood ([5]; 5 min, nasal 6.825 somatropin unit/25 mg, calcium carbonate, individual cases No. 31-32 in order): 0.46 ng/mL and 6.15 ng/mL
- Concentration of somatropin in the blood ([5]; 5 min, nasal, 25 mg, calcium lactate, individual cases No. 29-30 in order): 2.56 ng/mL and 0.30 ng/mL
- Concentration of somatropin in the blood ([5]; 10 min, nasal 6.825 somatropin unit/25 mg, calcium carbonate, individual cases No. 31-32 in order): 0.81 ng/mL and 2.81 ng/mL
- Concentration of somatropin in the blood ([5]; 10 min, nasal, 25 mg, calcium lactate, individual cases No. 29-30 in order): 4.29 ng/mL and 0.37 ng/mL
- Concentration of somatropin in the blood ([5]; 15 min, nasal 6.825 somatropin unit/25 mg, calcium carbonate, individual cases No. 31-32 in order): 1.13 ng/mL and 2.49 ng/mL
- Concentration of somatropin in the blood ([5]; 15 min, nasal, 25 mg, calcium lactate, individual cases No. 29-30 in order): 5.11 ng/mL and 0.65 ng/mL
- Concentration of somatropin in the blood ([5]; 20 min, nasal 6.825 somatropin unit/25 mg, calcium carbonate, individual cases No. 31-32 in order): 1.30 ng/mL and 2.20 ng/mL
- Concentration of somatropin in the blood ([5]; 20 min, nasal, 25 mg, calcium lactate, individual cases No. 29-30 in order): 5.87 ng/mL and 0.72 ng/mL
- Concentration of somatropin in the blood ([5]; 30 min, nasal 6.825 somatropin unit/25 mg, calcium carbonate, individual cases No. 31-32 in order): 1.64 ng/mL and 2.12 ng/mL
- Concentration of somatropin in the blood ([5]; 30 min, nasal, 25 mg, calcium lactate, individual cases No. 29-30 in order): 7.70 ng/mL and 0.79 ng/mL
- Concentration of somatropin in the blood ([5]; 45 min, nasal 6.825 somatropin unit/25 mg, calcium carbonate, individual cases No. 31-32 in order): 1.79 ng/mL and 1.67 ng/mL
- Concentration of somatropin in the blood ([5]; 45 min, nasal, 25 mg, calcium lactate, individual cases No. 29-30 in order): 5.99 ng/mL and 0.71 ng/mL
- Concentration of somatropin in the blood ([5]; 60 min, nasal 6.825 somatropin unit/25 mg, calcium carbonate, individual cases No. 31-32 in order): 1.47 ng/mL and 1.36 ng/mL
- Concentration of somatropin in the blood ([5]; 60 min, nasal, 25 mg, calcium lactate, individual cases No. 29-30 in order): 6.16 ng/mL and 0.62 ng/mL
- Concentration of somatropin in the blood ([5]; 90 min, nasal 6.825 somatropin unit/25 mg, calcium carbonate, individual cases No. 31-32 in order): 1.18 ng/mL and 1.02 ng/mL
- Concentration of somatropin in the blood ([5]; 90 min, nasal, 25 mg, calcium lactate, individual cases No. 29-30 in order): 3.39 ng/mL and 0.58 ng/mL
- Concentration of somatropin in the blood ([5]; 120 min, nasal 6.825 somatropin unit/25 mg, calcium carbonate, individual cases No. 31-32 in order): 0.79 ng/mL and 0.48 ng/mL
- Concentration of somatropin in the blood ([5]; 120 min, nasal, 25 mg, calcium lactate, individual cases No. 29-30 in order): 1.70 ng/mL and 0.32 ng/mL
- Concentration of somatropin in the blood ([5]; 150 min, nasal 6.825 somatropin unit/25 mg, calcium carbonate, individual cases No. 31-32 in order): 0.59 ng/mL and 0.37 ng/mL
- Concentration of somatropin in the blood ([5]; 150 min, nasal, 25 mg, calcium lactate, individual cases No. 29-30 in order): 0.24 ng/mL
- Concentration of somatropin in the blood ([5]; 180 min, nasal 6.825 somatropin unit/25 mg, calcium carbonate, individual cases No. 31-32 in order): 1.67 ng/mL and 0.48 ng/mL
- Concentration of somatropin in the blood ([5]; 180 min, nasal, 25 mg, calcium lactate, individual cases No. 29-30 in order): 0.45 ng/mL and 1.02 ng/mL
- absorption through nasal route ([5]; calcium lactate and calcium carbonate): high extent of absorption
- absorption into the body [3]: well absorbed into the body
- clinical effects [3]: high clinical effects
